Values quoted from earlier work as cited in patent US20260193255A1, “7-AZAINDOLE COMPOUNDS, PREPARATION METHOD THEREFOR, AND USE THEREOF” (Fudan University, priority 2022, published 2026).

Tested on: cachectic patients
Conditions: 30 mg/kg, Phase II; cited from earlier work

B1: Bimagrumab: antibody inhibitor of ActRIIB under development by Novartis (antibody, chains of the INN, looked up, V domains shown)
VH: QVQLVQSGAEVKKPGASVKVSCKASGYTFTSSYINWVRQAPGQGLEWMGTINPVSGSTSYAQKFQGRVTMTRDTSISTAYMELSRLRSDDTAVYYCARGGWFDYWGQGTLVTVSS
VL: QSALTQPASVSGSPGQSITISCTGTSSDVGSYNYVNWYQQHPGKAPKLMIYGVSKRPSGVSNRFSGSKSGNTASLTISGLQAEDEADYYCGTFAGGSYYGVFGGGTKLTVL
  Increase of muscle volume: 5.0-7.8%
